Settings: Pseudomonas aeruginosa (strain ATCC 15692 / DSM 22644 / CIP 104116 / JCM 14847 / LMG 12228 / 1C / PRS 101 / PAO1); pH 7; 10 °C; GdnHCl; Fluorescence; sodium phosphate 50 mM; reversible: yes; whole UniProt chain shown

B1: Cytochrome c-551 wild type, P00099 (protein)
chain: MKPYALLSLLATGTLLAQGAWAEDPEVLFKNKGCVACHAIDTKMVGPAYKDVAAKFAGQAGAEAELAQRIKNGSQGVWGPIPMPPNAVSDDEAQTLAKWVLSQK
For B1, the denaturant m value was 3.3 kcal/mol/M, the “denaturant midpoint (higher = more stable)” value was 1.8 M and the unfolding free energy was 6.1 kcal/mol.

Source: FireProtDB (doi:10.1110/ps.5101)
